Drawing on a protein production outcome set (Wang et al. 2014), this text covers protein production for 18 sequences.

The nature of the series: label from the status in PepcDB records.
Turning to “LRSPRLYTHRLILRPWLVQDRARFAELNADPLVMEFFPSCLDRAQSDALLRRIDAHFAEHGFGWWALQVKGGDPFIGYVGLEVVDFDAPFVPAVAIGWRLAAEHWAEGFAHEAAEAALSYAFDTLGLDQVVAFTVPANENSLGLMERLGMHRDPTDDFEHPDLPPGHRLRHHVLYRLTREDWLRR”, the protein production entry is on record as “not failed”.
For “LSDPNLVLFYVKNPAKSEEFYKNLLDTQPIESSPTFAMFVMKTGLRLGLWAQEEIEPKAHQTGGGMELSFQVNSNEMVDEIHRQWSDKEISIIQPPTQMDFGYTFVGVDPDEHRLRIFCLKRT” the value was “not failed”; for “LTLDLAPVTPKDAPLLHRVFHLSPSYFALIGMELPTLEDVVRDLQTLEVDPRRRAFLLFLGQEPVGYLDAKLGYPEAEDATLSLLLIREDHQGRGLGRQALERFAAGLDGVRRLYAVVYGHNPKAKAFFQAQGFRYVK”, “not failed”; for “LTRWGAFRNITLPLALPGLAAAAMFTFVMSWNEVFVASILTLKNRTLPAQILSIVAGAAGGAAPAYYKFAAAFIMTLPAMLFIFFARRYLVTMWGITL”, “failed”.
For “LVVSIRVQGDKRLSSLRRCCALTRYDAHKMSHDAFTVIKNCNTSGIQTEWSPPLTMLFLCATKFSASAP” the value was “failed”.
For the sequence “LYLAGIGQYAALLEAGFARARSAEETVRLLVTSYIDWVVANPDWARFILHSRGRVEAGELGERLRADNQAHFARIHAALAGYRAEGLFREMPDDCFASVVIGPAHDLARQWLAGRTRVALADCRELLAQVAWDSVRAA”, the protein production result is given as “not failed”.
“MAAASPLRDCQAWKDARLPLSTTSNEACKLFDATLTQYVKWTNDKSLGGIEGCLSKLKAADPTFVMGHAMATGLVLIGTGSSVKLDKELDLAVKTMVEISRTQPLTRREQLHVSAVETFANGNFPKACELWEQILQDHPTDMLALKFSHDAYFYLGYQEQMRDSVARIYPFWTPDIPLSSYVKGIYSFGLMETNFYDQAEKLAKEALSINPTDAWSVHTVAHIHEMKAEIKDGLEFMQHSETFWKDSDMLACHNYWHWALYLIEKGEYEAALTIYDTHILPSLQANDAMLDVVDSCSMLYRLQMEGVSVGQRWQDVLPVARKHSRDHILLFNDAHFLMASLGAHDPQTTQELLTTLRDASESPGENCQHLLARDVGLPLCQALVEAEDGNPDRVLELLLPIRYRIVQLGGSNAQRDVFNQLLIHAALNCTSSVHKNVARSLLMERDALKPNSPLTERLIRKAATVHLMQ”: the protein production entry is “failed”.
As to “MAACPELVDATFAILASGWHSTAVEVGGRWVFKFPRGAEAEAALLREAAVLRLVRPAVSLPVPAPQVFAGPPLFSRHEKLPGGYLLGEDYRRLDEPARQAVGDALGRFYAELHRLPPARMRAVGALPVRPWESPAAMRRRALPLLPAAWRERAERLVREYAKLPADPLGSIFGFFDGHGWNMAFDSEAGRLNGVYDFADAGIGPLHQEFIYSAFIDADLTERIVAAYERFSGRRLERRRIALLTAAHRLSELAELADEPRHLPDMLAGALDGLALAEAQGLA”, the protein production entry was “failed”.
Then “MAAILISLIGKYGMNGIFIATFMAGIFLLLAGIFRLGNLISLIPSPVITGFTSGIAIIIASGQIKNFFGIEHFTGSFFDLMKFISGLHIDYPSTIIGLLTILLMIFYPKSWGKKFPASLLAILLSTLAVLALKLDIPLVGKIPTTLIPQAHLRLTELNPQDMKTLLIPAISITVLGMTESLLCGASAGRATNHPMDNNQELVAQGIGNIFIPFFGGIPATAAIARTSVAIKAGAQTRLTGIIHALILLLSMFLFAPFMTHIPLSALAGVLIMTAVRMNEWEAIRFLFKNKLKSGIIEFFVTMIITVIFDLSTAILAGIVVGFLLFIVKISQIEINSSQIEPERISQNHHEVFTDWTVIYISGPLFFLNSSKLKQAIDELPANTNAVLSLRGVPMIDVTSIKLLIDIYSIFHKEERQIVFASMNPKLKESFKRTGLISMVGEEAIYPSVNEFLLDLVDKNK”, with “failed”; and “MAAKKPLFEVIASKIKDSINRDEYKTGMLMPNETALQEIYSSSRTTIRRAVDLLVEEGLVVRKNGVGLYVQPKLTAQNILEMTGVMKNDTNENLKKDIKDFYIRKAGKFYAEIFGMKENELVYSIKFVQKSEHGATLDRLILPLGLYPDLQAKDFQIINIIELVNSGKYKLFELEQELQLILAGNEQIKNMHLNENDPVFKLSSVFYAENDMPIAIQYHYEDAESTKYVVDFN”, with “not failed”.
Then “MAAKTMDFAGPAVSTGLGGLGPTRVSGAALMATLLFLGAPLLFAGNMLAARMMQGVLPPFTLASARWALAALVLLPFVRRELFGQRRAAPGRWRALVLPAVLGGALSVGPQYWAAHFTSAGNIALVFAMTPLLVALLDRLAGGARLGAPALAGMGLAIAGIATASFQGSLARLLAFQINPGDLLAGLAALAWAGYTVATRRPRAGLSGLALLWGVAAGGALTLAPAAAVEWLVLGVPSLSREAVLGVAFLAIVPSIGAYLAYGRLIGLVGPVVAGTSMYLIPLYALALGAMVLGEALGRYHLAAAALVIGGVALSRWRGAAKVCG”, with “failed”.
Then “MAAKTMRKAEELVEKAMKGNDASHDAWHVWRVRDLALSIAREEGLSSNSDSMEIVELAALLHDIGDYKYIRDPSEEKLVENFLDDEGIEETKKTKILTIINGMGFKDELAGVALCESLPEFGVVQDADRLDAIGAIGIARCFTFGGSRNRVLHDPEIKPRTELTKEQYIKREEQTTINHFHEKLLKLKKLMKTEAGKRRAEKRHKFMEEYLKEFYEEWDGST”, with “failed”; and “MAALGLGTYGAHVFKPENPSYKQVWQTASLYHLVHTAALVSAPSTKYPNIFGGLLTAGIVAFSGTCYMVALREDRKFSTLAPFGGFAFIAAWATLLF”, with “failed”; and “MAAPLCVKVEFGGGAELLFDGVKKHQVALPGQEEPWDIRNLLVWIKKNLLKERPELFIQGDSVRPGILVLINDADWELLGELDYQLQDQDSILFISTLHGG”, with “not failed”.
Regarding “MAARRFTGDELAALLPHAGDAFFLRDAEVDGWRASGGASWRSDHPHLRGHFPGEPIVPGVYLLEAAAQLAGVAIRCGAEDWTPETLGVLAGVRKSYFHRFVRPGERVDYALDVKPAPGSAMYAVSGLGKVDGDKVLTVELTIAGVRRLEHHHHHH”, the protein production result is on record as “failed”.
Then “MAASFAFLRDIRPYKTSWRIQVKVFHSWRQYTSMTGETLELVLVDAHGVKIHASVKKDLVSNFVNNLLLNEWRFIETFALNHASGQFRPTGHLYKMTFVTGTQCILLDVMGQVVDIGELETLEAKNKPTIKLDFELRDDTDERMSCTLWGAFAQSVFSACEFADGQMVICVLRFAKIKSYKGVRSFSNSFYASQVHINPDFPEVQAFVSRVPKFHMVTVKQDDDCKQYERKSIRDFLHSMEVRVVCTIYALDTDWSWYYFSCRNCNKKVTHIHAGVNTTSLKSSKPRFWCDVCKNGVTNVQAK”, with “failed”; and “MAASSPDSYISRRPYVTMGLTVAGVLVLVVATQLVEVLFTVFAGILLAVFLAGVTQELTEDTRLPRPLAVALTLIGLGGVLVGLWALAGPDISEQASALATLLPDAAERLASRIRTTVQRYGWMQRYVDPSQLLPPVSSVLGRVTNVFRDTLNLLVNGFIILFIGIYGGAAPQSYLDGVVQLVPPSSRPRARDVLSALGRALRWWLTGRLILMLIVGVLTAVGLKVVGIPSPIALGLLAALFSFVPYLGPVLSVLPALLVASLIGPTEVLYVILVYGAVQLLESYLISPLVQQQAVHIPPATVITAQFIGGVSAGAGGVLLATPFAIVVIVLVQTLYVEDVLGDEVSLLGEH”, with “failed”; and “MAASSSARVAAATAPTASPTSAAPAAPHDGEDNVAADAPYRVLIVEDDRSQALFAQSVLHGAGMHAQVEMTAASVPQAIQDYHPDLILMDLHMPELDGIRLTTLIRQQPGQQLLPIVFLTGDPDPERQFEVLDSGADDFLTKPIRPRHLIAAVSNRIRRARQQALQQAGEQVSVRSNPETGLPTRGHVMDLLADALERKQSGGLFFIEIASALGLRERYGYAAYERLMTQAGHRLASAAQPYPLARLNDNSFLLLAVDMPEASLEQQALEIRQRLSANAFPVREEESVHVRCAIGVAPLGLGFDDTGSALEAVERTALQARLRSDGVQTYLAPSQAEQQEQLRLVEGQLELAYQPIVAVAGGDTAQYQVLLRLRQADGTLLSAGQVIPAAEAAGRIADLDQQVMDHALGLLHLYQHASPPLRLFVSQSPRTLARDAFADWLLKALVERGVAGQSLIVDLRLDDALIHAVTVQQFCAKLMPAGVQFCLSQFEPGDEANALLAQLPLSFVRMANRFADAHGNAAVRDELRGVIDIAHQRGLLIIGQRIEDPQAAAAMWMSGVDFIQGNLVQTVGKELDFDFTSAVL”, with “failed”.
